Experimental data reported in patent US20220073618A1 (NANJING GENSCRIPT BIOTECH, published 2022).
Numbering of substitutions follows the chain as printed.

B1: AH01950 (antibody, human IgG1, V domains shown)
VH: QVQLQESGPGLVKPSQTLSLTCTVSGYSITSGYTWHWIRQHPGKGLEWIGYIHYSGSTKYNPSLKSRVTISRDTSKNQFSLKLSSVTAADTAVYYCARNSLFASWGQGTLVTVSS
VL: DIVLTQSPDSLAVSLGERATINCRASESVDTYGDSFMHWFQQKPGQPPKLLIYRASNLESGVPDRFSGSGSGTDFTLTISSLQAEDVAVYYCQQSNEAPYTFGGGTKLEIK
notes: also called mPD-L1Ab-CBM clone AH01950
B2: AH01963 (antibody, human IgG1, V domains shown)
VH: B1 VH
VL: B1 VL with F40Y, L82V
notes: also called mPD-L1Ab-CBM clone AH01963
B3: AH01946 (antibody, human IgG1, V domains shown)
VH: B1 VH with V86M
VL: B1 VL with L82V
notes: also called mPD-L1Ab-CBM clone AH01946
B4: AH02029 (antibody, human IgG1, V domains shown)
VH: B1 VH with S25T, T69S
VL: B1 VL with F40Y
notes: also called mPD-L1Ab-5BM clone AH02029

Experiments:
[1] = molecular target: T1, human PD-L1 on cell surface (human, UniProt Q9NZQ7 19-290); test: cell-based or functional assay
T1 sequence (Q9NZQ7 19-290): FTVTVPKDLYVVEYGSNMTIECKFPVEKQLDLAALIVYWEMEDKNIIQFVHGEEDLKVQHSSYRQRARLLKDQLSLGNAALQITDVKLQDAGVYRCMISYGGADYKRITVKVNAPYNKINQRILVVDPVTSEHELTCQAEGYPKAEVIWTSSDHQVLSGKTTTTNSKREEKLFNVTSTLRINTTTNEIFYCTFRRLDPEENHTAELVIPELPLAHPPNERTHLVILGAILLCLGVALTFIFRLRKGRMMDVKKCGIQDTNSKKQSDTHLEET

[2] = molecular target: T2, human PD-L1 protein (human, UniProt Q9NZQ7 19-238, limits assumed); test: ELISA on human PD-L1 protein; antibody treated for 20 min at 70 C
T2 sequence (Q9NZQ7 19-238 limits assumed): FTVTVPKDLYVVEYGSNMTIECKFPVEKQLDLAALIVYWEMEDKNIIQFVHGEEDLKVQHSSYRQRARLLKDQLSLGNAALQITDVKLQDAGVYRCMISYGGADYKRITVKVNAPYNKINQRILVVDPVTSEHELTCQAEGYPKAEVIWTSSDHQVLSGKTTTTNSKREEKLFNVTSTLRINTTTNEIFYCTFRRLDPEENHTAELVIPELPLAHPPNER
Description: (§1) The antibody samples were treated for 20 min at various temperature gradients respectively, and then centrifuged to remove the pellet. Then the amount of remaining antibody was evaluated by ELISA. (The temperature gradient includes: room temperature, 30° C., 40° C., 50° C., 60° C., 70° C., […]) (FIG. 4)

[3] = molecular target: T2, human PD-L1 protein; test: ELISA on human PD-L1 protein; antibody after 14 days at 40 C (D14)
Description: (§2) The antibody samples were treated separately at 40° C., and then centrifuged to remove the pellet. Then the amount of remaining antibody was evaluated by ELISA. (test after treatment at 40° C. for 7 days (D7) and 14 days (D14) separately; for each test, the untreated sample (D0) stored at −80° C. is used as a control) (FIG. 3)

[4] = molecular target: T3, PD-L1-HIS recombinant protein (human, UniProt Q9NZQ7 19-238, limits assumed); test: SPR (Biacore 8K), antibody captured on chip, PD-L1-HIS analyte 2.5-80 nM, 1:1 binding model
T3 construct: not shown: His tag
T3 sequence (Q9NZQ7 19-238 limits assumed): as above
Description: The chip surface was equilibrated with HBS-EP buffer at a flow rate of 10 μl/min for 5 min, and then a 1:1 mixture of “NHS+EDC” was injected at a flow rate of 10 μl/min for 420 sec to activate the chip. The capture antibody (goat anti-murine IgG) diluted in 10 mM sodium acetate buffer was injected for about 420 sec at a flow rate of 10 μl/min for coupling, and finally ethanolamine was injected for 420 sec at a flow rate of 10 μl/min to block the surface.
Three pre-cycles were performed with the HBS-EP buffer as a sample to balance the chip to stabilize the baseline. The antibody diluted in HBS-EP buffer was injected for 30 sec at a flow rate of 10 μl/min (where the antibody-antigen binding signal was controlled to about 100 RU by adjusting the capture time between 0-5 min), and then the chip was equilibrated with the buffer for 1 min. The low-concentration antigen 2.5 nM PD-L1-HIS was injected at a flow rate of 30 μl/min for 240/300 seconds, to allow the antigen to bind to the antibody, and then the buffer was injected at a flow rate of 30 μl/min for 720/600 seconds for dissociation. 50 mM HCl were injected three times each for 15 s at a flow rate of 100 μl/min for regeneration, to complete one cycle. The antigen concentration was changed (such as 5 nM PD-L1-HIS) to carry out the cycle for measurement at a next gradient concentration until all gradient concentrations (2.5 nM, 5 nM, 10 nM, 20 nM, 40 nM, 80 nM PD-L1-HIS) and the replicate (such as 10 nM PD-L1-HIS) were tested.
The experimental data was double subtracted (minus the background values of the control channel and zero concentration), and fitted to the “1:1 binding” model in the Biacore 8K evaluation software. Biacore 8K was used to determine the affinity of the antibody to the PD-L1-HIS recombinant protein.

[5] = molecular target: T2, human PD-L1 protein; test: ELISA on human PD-L1 protein; untreated antibody (D0) and antibody after 7 days at 40 C (D7)
Description: as §2

[6] = molecular target: T2, human PD-L1 protein; test: ELISA on human PD-L1 protein; antibody treated for 20 min (all overlapping curves, including the -80 C control)
Description: as §1

[7] = molecular target: T2, human PD-L1 protein; test: ELISA on the antigen (human PD-L1); antibody untreated (0), after oxidative stress (AAPH, 24 h) or deamidation stress (pH 9.0, 48 h)
[8] = molecular target: T2, human PD-L1 protein; test: ELISA on human PD-L1 protein; antibody treated for 20 min at room temperature to 70 C and -80 C control (curves not told apart)
Description: as §1

[9] = molecular target: T2, human PD-L1 protein; test: ELISA on the antigen (human PD-L1); antibody untreated (0), after oxidative stress (AAPH, 24 h) or deamidation stress (pH 9.0, 48 h); curves not told apart
[10] = molecular target: T1, human PD-L1 on cell surface; test: flow cytometry on CHO cells expressing human PD-L1, fitted curve
Description: (§3) CHO cells expressing human or monkey PD-L1 and parent cells as a negative control were washed 3 times with PBS. 2.5×10⁵ detection cells and 100 μl of 3-fold serial dilutions of purified antibody with an initial concentration of 300 nM were added to a 96-well plate and incubated at 4° C. for 1 hr. […] Finally, the cells were washed 3 times with PBS, and the signal was read on FACS BD Calibur.

[11] = molecular target: T4, monkey PD-L1 on cell surface (monkey); test: flow cytometry on CHO cells expressing monkey PD-L1, fitted curve
T4 construct: whole, on cells; also called monkey PD-L1 cell line; CHO cells overexpressing monkey PD-L1
Description: as §3
Moreover, CHO cells overexpressing monkey PD-L1 were used to test the cross-recognition binding to monkey PD-L1 by the antibodies.

[12] = molecular target: T2, human PD-L1 protein; test: ELISA on human PD-L1 protein; antibody kept at 40 C for 0 (D0), 7 (D7) or 14 (D14) days
Description: as §2

[13] = molecular target: T5, biotin-labeled PD-L1-Fc (human, UniProt Q9NZQ7 19-238, limits assumed, biotin-labeled (sites not given)); test: ELISA: biotin-PD-L1-Fc binding to coated human PD-1 with titrated antibody; enhancement of PD-L1/PD-1 binding
T5 construct: not shown: Fc part
T5 sequence (Q9NZQ7 19-238 limits assumed): as above
Description: (§4) The ELISA plate (Nunc) was coated with 100 μl/well of 0.5 μg/ml recombinant human PD-1 protein in PBS at 4° C. overnight. The plate was washed with PBS-T (0.05% Tween), and blocked with 200 μl/well of PBST containing 1% BSA at 37° C. for 0.5 hr. Then the blocking buffer was discarded, and 50 μl of 10 μg/ml purified antibody to be tested was added to the first test well. 3-fold serial dilutions were made, and a total of 11 test concentration gradients were given. […] The plate was washed 3 times with PBST, and incubated with 100 μl/well of Streptavidin-HRP (SA-HRP, GenScript) at 37° C. for 10 min. Finally, the plate was washed 5 times with PBST, and then a TMB developing solution (GenScript) was added and incubated at room temperature for 15 min in the dark. The reaction was terminated by adding 50 μl of 1M HCl stop solution (Sigma). The plate was read at 450 nm on a microplate reader.

[14] = molecular target: T5, biotin-labeled PD-L1-Fc; test: ELISA: biotin-PD-L1-Fc binding to coated human PD-1 with titrated antibody, OD 450 nm, fitted curve; enhancement
Description: as §4

[15] = molecular target: T5, biotin-labeled PD-L1-Fc; test: flow cytometry: biotin-PD-L1-Fc binding to CHO cells expressing human PD-1 with titrated antibody, fitted curve; enhancement
Description: (§5) In the FACS test, CHO cells expressing human PD-1 and parent cells as a negative control were washed 3 times with PBS. 2.5×10⁵ detection cells and 50 μl of 3-fold serial dilutions of purified antibody with an initial concentration of 300 nM were added to a 96-well plate. […] Then the cells were washed 3 times with PBS, 100 μl of iFluor647-labeled streptavidin (1 μg/ml) was added, and the cells were incubated at 4° C. for 45 min. Finally, the cells were washed 3 times with PBS, and the signal was read on FACS BD Calibur.

[16] = molecular target: T5, biotin-labeled PD-L1-Fc; test: flow cytometry: biotin-PD-L1-Fc binding to CHO cells expressing human PD-1 with titrated antibody; enhancement of PD-L1/PD-1 binding
Description: as §5

[17] = molecular target: T2, human PD-L1 protein; test: ELISA on the antigen (human PD-L1); antibody untreated (0), after oxidative stress (AAPH, 24 h) or deamidation stress (pH 9.0, 48 h); remark: listed apart in the source
[18] = molecular target: T2, human PD-L1 protein; test: ELISA on human PD-L1 protein; antibody treated for 20 min (all overlapping curves)
Description: as §1

[19] = molecular target: T2, human PD-L1 protein; test: ELISA on the antigen (human PD-L1); antibody untreated (0), after oxidative stress (AAPH, 24 h) or deamidation stress (pH 9.0, 48 h); curves not told apart; remark: listed apart in the source

| Binder | Bottom (best-fit value) of IL-2 release, mixed lymphocyte reaction [1] | EC50 (µg/ml) of IL-2 release, mixed lymphocyte reaction [1] | LogEC50 (best-fit value) of IL-2 release, mixed lymphocyte reaction [1] | Span (best-fit value) of IL-2 release, mixed lymphocyte reaction [1] | Top (best-fit value) of IL-2 release, mixed lymphocyte reaction [1] | EC50 (read off the curve) [2] | EC50 (read off the curve) [3] | Kd [4] | koff [4] | kon [4] | EC50 (read off the curve) [5] | EC50 (read off the curve) [8] | EC50 [10] | LogEC50 [10] | EC50 [11] | LogEC50 [11] | EC50 (read off the curve) [12] | EC50 [13] | LogEC50 [14] | LogEC50 [15] | further results |
| --- | --- | --- | --- | --- | --- | --- | --- | --- | --- | --- | --- | --- | --- | --- | --- | --- | --- | --- | --- | --- | --- |
| B1 | 1140 | 0.0311 µg/mL | -1.51 | 950 | 2090 | ~0.03 µg/mL | ~0.02 µg/mL | 0.82 nM | 0.000152 s⁻¹ | 185000 M⁻¹ s⁻¹ | ~0.01 µg/mL | – | – | – | – | – | – | – | – | – | EC50 (read off the curve) [6]: ~0.01 µg/mL; EC50 (read off the curve) [7]: ~0.01 µg/mL |
| B2 | 1420 | 0.0406 µg/mL | -1.39 | 930 | 2350 | – | ~0.02 µg/mL | 1.27 nM | 0.000274 s⁻¹ | 216000 M⁻¹ s⁻¹ | ~0.01 µg/mL | ~0.01 µg/mL | – | – | – | – | – | – | – | – | EC50 (read off the curve) [9]: ~0.02 µg/mL |
| B3 | 1170 | 0.0295 µg/mL | -1.53 | 866 | 2030 | – | – | 0.835 nM | 0.000155 s⁻¹ | 186000 M⁻¹ s⁻¹ | – | ~0.01 µg/mL | 0.501 nM | -0.3 | 3.29 nM | 0.518 | ~0.01 µg/mL | 0.0219 µg/mL | 1.34 | 1.45 | EC50 [16]: 28.1 nM; EC50 (read off the curve) [17]: ~0.01 µg/mL |
| B4 | 1350 | 0.0293 µg/mL | -1.53 | 1020 | 2370 | ~0.04 µg/mL | – | 1.57 nM | 0.000334 s⁻¹ | 213000 M⁻¹ s⁻¹ | – | – | 0.478 nM | -0.321 | 3.4 nM | 0.532 | ~0.01 µg/mL | 0.017 µg/mL | 1.23 | 1.59 | EC50 (read off the curve) [18]: ~0.01 µg/mL; EC50 [16]: 38.7 nM; EC50 (read off the curve) [19]: ~0.02 µg/mL |
